Results reported in PMC3113405 (Nature structural & molecular biology, 2010).

T1: Cog2 with an N-terminal 7×His tag (S. cerevisiae, UniProt P53271 1-262)
T1 sequence (looked up): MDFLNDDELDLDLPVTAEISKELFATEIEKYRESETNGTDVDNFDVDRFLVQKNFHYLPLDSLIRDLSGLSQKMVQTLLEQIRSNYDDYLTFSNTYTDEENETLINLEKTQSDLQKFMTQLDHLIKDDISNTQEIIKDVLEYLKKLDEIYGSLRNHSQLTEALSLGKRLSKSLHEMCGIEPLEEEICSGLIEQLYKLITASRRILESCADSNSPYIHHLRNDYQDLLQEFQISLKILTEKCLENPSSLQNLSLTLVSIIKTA

T2: Cog8 (S. cerevisiae, UniProt Q04632 1-607)
T2 sequence (looked up): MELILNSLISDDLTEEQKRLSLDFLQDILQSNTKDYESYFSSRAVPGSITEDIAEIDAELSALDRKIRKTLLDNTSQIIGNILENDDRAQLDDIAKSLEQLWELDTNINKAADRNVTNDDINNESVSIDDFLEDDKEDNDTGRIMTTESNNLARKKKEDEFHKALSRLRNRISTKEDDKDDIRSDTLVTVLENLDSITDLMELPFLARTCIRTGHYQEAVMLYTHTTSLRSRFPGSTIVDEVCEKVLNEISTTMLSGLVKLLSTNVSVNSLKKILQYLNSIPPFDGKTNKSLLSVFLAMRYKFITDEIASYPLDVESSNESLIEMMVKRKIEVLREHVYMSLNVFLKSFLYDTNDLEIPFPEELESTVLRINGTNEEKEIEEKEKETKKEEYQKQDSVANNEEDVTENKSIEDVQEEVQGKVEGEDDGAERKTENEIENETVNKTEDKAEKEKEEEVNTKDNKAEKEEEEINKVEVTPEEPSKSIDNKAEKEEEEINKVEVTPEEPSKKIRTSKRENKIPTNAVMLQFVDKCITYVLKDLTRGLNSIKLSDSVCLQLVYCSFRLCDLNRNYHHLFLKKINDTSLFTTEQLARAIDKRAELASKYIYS


Experiments:
[1] = biological target: T1, Cog2 with an N-terminal 7×His tag; assay: negative-stain single-particle electron microscopy with GFP labelling
Cog8 = biological target: T2, Cog8; assay: negative-stain single-particle electron microscopy

| stoichiometry N [1] | binding result (Cog8) | Binder |
| --- | --- | --- |
| 1 | binds | Cog1 (natural protein, S. cerevisiae, UniProt P53079 1-417, looked up) MDEVLPLFRDSHIPQIKDYQLELQNDLTKTNEAFQKNLLKNYNKILSLTDSVNDLSLNLKNVDQDFKSLCFNDEKFQLNKLTPLPYQTTTHISPPRDEEKVSIPSQNILVISNWTISINNFCNRIVTSTTPSRIFDELLLNFHELSLIPVPSKFEALVKDKCCRLQKFLVDSMKTLNLTLLQWVKLYNLLNTEFSSKWDDDLLSIFNESLFETLFNDNVQALLISSANSKDHQYHSNQQYKDAIVVDFVNSSTFRDHLIRRTVKEINTHLDTLSTLRAKLKEPETLHKLDIFHDNDTNLNDGTVSPLDDDALKQYIDTAVFYSKGLTNDTTLQIYQTVQPTIEILQNLELYKCPQETLTDLRNKLITQLQEFKTQISSRLPSPLENSTSVVDDFITSYNNHNLLQLVIDQITQLRQQ |
| 1 |  | Cog4 (natural protein, S. cerevisiae, UniProt Q06096 1-861, looked up) MEGQKSNASWESSIIEGQLSKNLARYTLLLDKLSTLSQIDKLSEVIANDYAKQSKQLNAFVQQSQSSLNKESRKLELQRTNLTTTLTQFHETVATISSSNARAKAIHDDIETVDQERALVNKTLQFVKDVRTLKNNISLAHSALETKDYLVAATAINEIRSLPDKKLIVSEFAKKVVPSSEIPEEPAILIKNWCKELTSLFQEQFMEATRTQDIKELTLMFKMFPMIGQDVLGLDLYSKYVCDIIADESRKIMSNSMENSTKFQGFFSQVLLHLFKIVSTIINDHSKVIATCYGKKHMVHVMEKVEKEADLQASLILDIFMETRKIERTIHDINEWEHSQKNEDVNIDSNQSDIETDGETEKSSIISIHDLALLIMEFSQILQNWSMYSRFYSVKWNEFSDLHPHVLQPPPPIADGKFALKLKQDKVFDEFQVFVLNHLQRSFRNSISLEELPSLNDLITAVPLNDHDNISYPVTSVLDDLILLVRKNLISVVNTGQFKLLASFLNELVKFFQNRFLVKFMQNKFKLLQSKLASNVSLKRYIPKGEEQSATSRSVSPPANKFSPLSRFTFRGAAASALTNIQSNLQAVVAEDEDSILALHHYLIYLNTLYLSKVYVHRLLSIEILEDDSQRILRDNFPFDNDAAQLQNLIINSEKLVLEQTDKLSKWAVKYLFQNILQNRVRNLLGTVFVNSASSNSSTSNQKNVSRDYSAGSNQKNYITSIEDFEDLSQINSFNSKWNQLIIPYKNILHNEAYAELLSVIVDYIVTTLEQRIWTLEFNELGVTKLDRELSLFIGNMCGLNYNLREKFLKLTQIVLLLGLDDDNFDLTTGDIKDDFNGTFDWVINSQERIKARNMKIDRTQ |
| 1 |  | Cog3 (natural protein, S. cerevisiae, UniProt P40094 1-801, looked up) MARSRKNSLVRDIASHPTIPESQTIVGLLDDSYLFDKLKKLSLAVENSDSLQRTDVSEGCSEVNGSEATTSADVKKTNKYLYYTTYLDQLNIKIDEYKVVLDQTRQVNDQLDSSIKKFRKISQDTGAFIEETKTIYEKQSKLSNLTESIPKALHYFEVLDPIMRRLNHATSPAIVKKSSFTTMLATIDESLRFLDENSDLKDAAAYRIKFKQCLIRACELISHFLTNLLKQTNQEILDKTKNKNSLTGLPSTTRDAFLYSKFYTIADTFKIQVSEIVKRSNEKAYNKYHDELNSILYECFNHYFQTRLRLLTPVIWSHIDEIVVKDKDQGLVKFIQDGKVYFQQLCADEYKLFVEFFPEKECRFKINQWFLQLCEPLYDSIRVRVLKETDICTLCDSVTLFAPYYEFEEGSEEYVKQFTDIQYDKLFEPIVQKVQARLILRVQIYVQQNILSYRPTRDVFMISNRRRKSKTSLQGGNEDATTSDDNPDPLLESYLSSFKNRSILPISPNDADDKSIDSEESTDKISQLQTYYPPLLKTLALLSKIYEMINSVVFDDLAHHVVHDCIVSLRNAYDMVIKSSAGKSDFNNLDISLAYLKNLLMLRDSIQNFNIQYTVNETYLDFSGVEGFFKSLKENGRNVLKKTKSSSILTLARELVPKVVNNMVDARTELISELRNVIKDFTESTSLELIDDTLDINSDEDLLSKNVKLRENIKARLPRIYEQILNYIDDQEIVTNLLDAVQELITQSYSKYYETITELAENGKFAKDQVADVMYLDVFTDFFAKEVADLLRNGDIDTITK |
